This passage reports Km and kcat results from publication doi:10.1101/2023.05.09.538545v2.

What all share (assay): purified protein
Common to all, as to type: biochemical, Escherichia coli
Holding throughout (details): 0.05 M phosphate buffer, pH 7.0, 35 °C

Substrate in series [1]: CCCCCC(=O)CC(=O)N[C@H]1CCOC1=O
Substrate in series [2]: CCCCCCCCCC(=O)CC(=O)N[C@H]1CCOC1=O
Substrate in series [3]: CCCC(=O)CC(=O)N[C@H]1CCOC1=O
Substrate in series [4]: CCCCCCCCCC(=O)N[C@H]1CCOC1=O

B1: ecPGA (Escherichia coli penicillin G acylase) (Escherichia coli) (protein)
chain 1: EQSSSEIKIVRDEYGMPHIYANDTWHLFYGYGYVVAQDRLFQMEMARRSTQGTVAEVLGKDFVKFDKDIRRNYWPDAIRAQIAALSPEDMSILQGYADGMNAWIDKVNTNPETLLPKQFNTFGFTPKRWEPFDVAMIFVGTMANRFSDSTSEIDNLALLTALKDKYGVSQGMAVFNQLKWLVNPSAPTTIAVQESNYPLKFNQQNSQTA
chain 2: SNMWVIGKSKAQDAKAIMVNGPQFGWYAPAYTYGIGLHGAGYDVTGNTPFAYPGLVFGHNGVISWGSTAGFGDDVDIFAERLSAEKPGYYLHNGKWVKMLSREETITVKNGQAETFTVWRTVHGNILQTDQTTQTAYAKSRAWDGKEVASLLAWTHQMKAKNWQEWTQQAAKQALTINWYYADVNGNIGYVHTGAYPDRQSGHDPRLPVPGTGKWDWKGLLPFEMNPKVYNPQSGYIANWNNSPQKDYPASDLFAFLWGGADRVTEIDRLLEQKPRLTADQAWDVIRQTSRQDLNLRLFLPTLQAATSGLTQSDPRRQLVETLTRWDGINLLNDDGKTWQQPGSAILNVWLTSMLKRTVVAAVPMPFDKWYSASGYETTQDGPTGSLNISVGAKILYEAVQGDKSPIPQAVDLFAGKPQQEVVLAALEDTWETLSKRYGNNVSNWKTPAMALTFRANNFFGVPQAAAEETRHQAEYQNRGTENDMIVFSPTTSDRPVLAWDVVAPGQSGFIAPDGTVDKHYEDQLKMYENFGRKSLWLTKQDVEAHKESQEVLHVQR
For orientation: Km means the concentration of substrate that gives half-maximal velocity. In general, kcat refers to the maximal rate divided by the concentration of active sites. With B1, the Km in the series “purified protein [1]” came to 880 ± 40 µM; in “purified protein [2]”, 2500 ± 100 µM; in “purified protein [3]”, 510 ± 30 µM; in the series “purified protein [4]”, 2980 ± 200 µM. The kcat in “purified protein [1]” turned out to be 0.0077 ± 0.0004 s⁻¹; in the series “purified protein [2]”, 0.0043 ± 0.0002 s⁻¹; in “purified protein [3]”, 0.0100 ± 0.0002 s⁻¹; in the series “purified protein [4]”, 0.0045 ± 0.0004 s⁻¹.
